Among the data in PMC11446282 are Experimental % binding values, retold here.

The assay has as its system PP2A-B55α. Nature of the assay: Single alanine mutational scan, YFP-tagged interactors immunoprecipitated from HeLa cells, Western blot. In kind it is binding, human.
The mark [1] stands for this setting: single alanine mutant of YFP-tagged AMOTL2.
[2] abbreviates: single alanine mutant of YFP-tagged CDCA4.

B1: AMOTL2 R14: AMOTL2, R14 to alanine (protein, UniProt Q9Y2J4 1-779, looked up, variant R14A)
Angiomotin-like protein 2: MRTLEDSSGTVLHALIQEQLRYGNLTETRTLLAIQQQALRGGAGTGGTGSPQASLEILAPEDSQVLQQATRQEPQGQEHQGGENHLAENTLYRLCPQPSKGEELPTYEEAKAHSQYYAAQQAGTRPHAGDRDPRGAPGGSRRQDEALRELRHGHVRSLSERLLQLSLERNGARAPSHMSSSHSFPQLARNQQGPPLRGPPAEGPESRGPPPQYPHVVLAHETTTAVTDPRYRARGSPHFQHAEVRILQAQVPPVFLQQQQQYQYLQQSQEHPPPPHPAALGHGPLSSLSPPAVEGPVSAQASSATSGSAHLAQMEAVLRENARLQRDNERLQRELESSAEKAGRIEKLESEIQRLSEAHESLTRASSKREALEKTMRNKMDSEMRRLQDFNRDLRERLESANRRLASKTQEAQAGSQDMVAKLLAQSYEQQQEQEKLEREMALLRGAIEDQRRRAELLEQALGNAQGRAARAEEELRKKQAYVEKVERLQQALGQLQAACEKREQLELRLRTRLEQELKALRAQQRQAGAPGGSSGSGGSPELSALRLSEQLREKEEQILALEADMTKWEQKYLEERAMRQFAMDAAATAAAQRDTTLIRHSPQPSPSSSFNEGLLTGGHRHQEMESRLKVLHAQILEKDAVIKVLQQRSRRDPGKAIQGSLRPAKSVPSVFAAAAAGTQGWQGLSSSERQTADAPARLTTDRAPTEEPVVTAPPAAHAKHGSRDGSTQTEGPPDSTSTCLPPEPDSLLGCSSSQRAASLDSVATSRVQDLSDMVEILI
With B1, the Experimental % binding under setting [1] is reported as 15%.

B2: AMOTL2 I16: AMOTL2, I16 to alanine (protein, UniProt Q9Y2J4 1-779, looked up, variant I16A)
Angiomotin-like protein 2: MRTLEDSSGTVLHRLAQEQLRYGNLTETRTLLAIQQQALRGGAGTGGTGSPQASLEILAPEDSQVLQQATRQEPQGQEHQGGENHLAENTLYRLCPQPSKGEELPTYEEAKAHSQYYAAQQAGTRPHAGDRDPRGAPGGSRRQDEALRELRHGHVRSLSERLLQLSLERNGARAPSHMSSSHSFPQLARNQQGPPLRGPPAEGPESRGPPPQYPHVVLAHETTTAVTDPRYRARGSPHFQHAEVRILQAQVPPVFLQQQQQYQYLQQSQEHPPPPHPAALGHGPLSSLSPPAVEGPVSAQASSATSGSAHLAQMEAVLRENARLQRDNERLQRELESSAEKAGRIEKLESEIQRLSEAHESLTRASSKREALEKTMRNKMDSEMRRLQDFNRDLRERLESANRRLASKTQEAQAGSQDMVAKLLAQSYEQQQEQEKLEREMALLRGAIEDQRRRAELLEQALGNAQGRAARAEEELRKKQAYVEKVERLQQALGQLQAACEKREQLELRLRTRLEQELKALRAQQRQAGAPGGSSGSGGSPELSALRLSEQLREKEEQILALEADMTKWEQKYLEERAMRQFAMDAAATAAAQRDTTLIRHSPQPSPSSSFNEGLLTGGHRHQEMESRLKVLHAQILEKDAVIKVLQQRSRRDPGKAIQGSLRPAKSVPSVFAAAAAGTQGWQGLSSSERQTADAPARLTTDRAPTEEPVVTAPPAAHAKHGSRDGSTQTEGPPDSTSTCLPPEPDSLLGCSSSQRAASLDSVATSRVQDLSDMVEILI
With B2, the Experimental % binding under setting [1] is 32%.

B3: AMOTL2 L15: AMOTL2, L15 to alanine (protein, UniProt Q9Y2J4 1-779, looked up, variant L15A)
Angiomotin-like protein 2: MRTLEDSSGTVLHRAIQEQLRYGNLTETRTLLAIQQQALRGGAGTGGTGSPQASLEILAPEDSQVLQQATRQEPQGQEHQGGENHLAENTLYRLCPQPSKGEELPTYEEAKAHSQYYAAQQAGTRPHAGDRDPRGAPGGSRRQDEALRELRHGHVRSLSERLLQLSLERNGARAPSHMSSSHSFPQLARNQQGPPLRGPPAEGPESRGPPPQYPHVVLAHETTTAVTDPRYRARGSPHFQHAEVRILQAQVPPVFLQQQQQYQYLQQSQEHPPPPHPAALGHGPLSSLSPPAVEGPVSAQASSATSGSAHLAQMEAVLRENARLQRDNERLQRELESSAEKAGRIEKLESEIQRLSEAHESLTRASSKREALEKTMRNKMDSEMRRLQDFNRDLRERLESANRRLASKTQEAQAGSQDMVAKLLAQSYEQQQEQEKLEREMALLRGAIEDQRRRAELLEQALGNAQGRAARAEEELRKKQAYVEKVERLQQALGQLQAACEKREQLELRLRTRLEQELKALRAQQRQAGAPGGSSGSGGSPELSALRLSEQLREKEEQILALEADMTKWEQKYLEERAMRQFAMDAAATAAAQRDTTLIRHSPQPSPSSSFNEGLLTGGHRHQEMESRLKVLHAQILEKDAVIKVLQQRSRRDPGKAIQGSLRPAKSVPSVFAAAAAGTQGWQGLSSSERQTADAPARLTTDRAPTEEPVVTAPPAAHAKHGSRDGSTQTEGPPDSTSTCLPPEPDSLLGCSSSQRAASLDSVATSRVQDLSDMVEILI
Turning to B3, the Experimental % binding under setting [1] was 32%.

B4: CDCA4 S59: CDCA4, S59 to alanine (protein, UniProt Q9BXL8 1-241, looked up, variant S59A)
Cell division …: MFARGLKRKCVGHEEDVEGALAGLKTVSSYSLQRQSLLDMSLVKLQLCHMLVEPNLCRAVLIANTVRQIQEEMTQDGTWRTVAPQAAERAPLDRLVSTEILCRAAWGQEGAHPAPGLGDGHTQGPVSDLCPVTSAQAPRHLQSSAWEMDGPRENRGSFHKSLDQIFETLETKNPSCMEELFSDVDSPYYDLDTVLTGMMGGARPGPCEGLEGLAPATPGPSSSCKSDLGELDHVVEILVET
As to B4, the Experimental % binding under setting [2] is 64%.

B5: CDCA4 V43: CDCA4, V43 to alanine (protein, UniProt Q9BXL8 1-241, looked up, variant V43A)
Cell division …: MFARGLKRKCVGHEEDVEGALAGLKTVSSYSLQRQSLLDMSLAKLQLCHMLVEPNLCRSVLIANTVRQIQEEMTQDGTWRTVAPQAAERAPLDRLVSTEILCRAAWGQEGAHPAPGLGDGHTQGPVSDLCPVTSAQAPRHLQSSAWEMDGPRENRGSFHKSLDQIFETLETKNPSCMEELFSDVDSPYYDLDTVLTGMMGGARPGPCEGLEGLAPATPGPSSSCKSDLGELDHVVEILVET
As to B5, the Experimental % binding under setting [2] is given as 81%.

B6: CDCA4 T65: CDCA4, T65 to alanine (protein, UniProt Q9BXL8 1-241, looked up, variant T65A)
Cell division …: MFARGLKRKCVGHEEDVEGALAGLKTVSSYSLQRQSLLDMSLVKLQLCHMLVEPNLCRSVLIANAVRQIQEEMTQDGTWRTVAPQAAERAPLDRLVSTEILCRAAWGQEGAHPAPGLGDGHTQGPVSDLCPVTSAQAPRHLQSSAWEMDGPRENRGSFHKSLDQIFETLETKNPSCMEELFSDVDSPYYDLDTVLTGMMGGARPGPCEGLEGLAPATPGPSSSCKSDLGELDHVVEILVET
Under setting [2], B6 returned an Experimental % binding of 28%.

B7: CDCA4 I62: CDCA4, I62 to alanine (protein, UniProt Q9BXL8 1-241, looked up, variant I62A)
Cell division …: MFARGLKRKCVGHEEDVEGALAGLKTVSSYSLQRQSLLDMSLVKLQLCHMLVEPNLCRSVLAANTVRQIQEEMTQDGTWRTVAPQAAERAPLDRLVSTEILCRAAWGQEGAHPAPGLGDGHTQGPVSDLCPVTSAQAPRHLQSSAWEMDGPRENRGSFHKSLDQIFETLETKNPSCMEELFSDVDSPYYDLDTVLTGMMGGARPGPCEGLEGLAPATPGPSSSCKSDLGELDHVVEILVET
The molecule B7 showed an Experimental % binding under setting [2] of 7%.

B8: CDCA4 L61: CDCA4, L61 to alanine (protein, UniProt Q9BXL8 1-241, looked up, variant L61A)
Cell division …: MFARGLKRKCVGHEEDVEGALAGLKTVSSYSLQRQSLLDMSLVKLQLCHMLVEPNLCRSVAIANTVRQIQEEMTQDGTWRTVAPQAAERAPLDRLVSTEILCRAAWGQEGAHPAPGLGDGHTQGPVSDLCPVTSAQAPRHLQSSAWEMDGPRENRGSFHKSLDQIFETLETKNPSCMEELFSDVDSPYYDLDTVLTGMMGGARPGPCEGLEGLAPATPGPSSSCKSDLGELDHVVEILVET
Take B8: the Experimental % binding under setting [2] is recorded as 28%.

B9: CDCA4 L42: CDCA4, L42 to alanine (protein, UniProt Q9BXL8 1-241, looked up, variant L42A)
Cell division …: MFARGLKRKCVGHEEDVEGALAGLKTVSSYSLQRQSLLDMSAVKLQLCHMLVEPNLCRSVLIANTVRQIQEEMTQDGTWRTVAPQAAERAPLDRLVSTEILCRAAWGQEGAHPAPGLGDGHTQGPVSDLCPVTSAQAPRHLQSSAWEMDGPRENRGSFHKSLDQIFETLETKNPSCMEELFSDVDSPYYDLDTVLTGMMGGARPGPCEGLEGLAPATPGPSSSCKSDLGELDHVVEILVET
Regarding B9, under setting [2], the Experimental % binding was found to be 129%.

B10: CDCA4 V60: CDCA4, V60 to alanine (protein, UniProt Q9BXL8 1-241, looked up, variant V60A)
Cell division …: MFARGLKRKCVGHEEDVEGALAGLKTVSSYSLQRQSLLDMSLVKLQLCHMLVEPNLCRSALIANTVRQIQEEMTQDGTWRTVAPQAAERAPLDRLVSTEILCRAAWGQEGAHPAPGLGDGHTQGPVSDLCPVTSAQAPRHLQSSAWEMDGPRENRGSFHKSLDQIFETLETKNPSCMEELFSDVDSPYYDLDTVLTGMMGGARPGPCEGLEGLAPATPGPSSSCKSDLGELDHVVEILVET
Turning to B10, the Experimental % binding under setting [2] stood at 47%.

B11: CDCA4 V66: CDCA4, V66 to alanine (protein, UniProt Q9BXL8 1-241, looked up, variant V66A)
Cell division …: MFARGLKRKCVGHEEDVEGALAGLKTVSSYSLQRQSLLDMSLVKLQLCHMLVEPNLCRSVLIANTARQIQEEMTQDGTWRTVAPQAAERAPLDRLVSTEILCRAAWGQEGAHPAPGLGDGHTQGPVSDLCPVTSAQAPRHLQSSAWEMDGPRENRGSFHKSLDQIFETLETKNPSCMEELFSDVDSPYYDLDTVLTGMMGGARPGPCEGLEGLAPATPGPSSSCKSDLGELDHVVEILVET
B11 gave an Experimental % binding under setting [2] of 38%.

B12: CDCA4 N64: CDCA4, N64 to alanine (protein, UniProt Q9BXL8 1-241, looked up, variant N64A)
Cell division …: MFARGLKRKCVGHEEDVEGALAGLKTVSSYSLQRQSLLDMSLVKLQLCHMLVEPNLCRSVLIAATVRQIQEEMTQDGTWRTVAPQAAERAPLDRLVSTEILCRAAWGQEGAHPAPGLGDGHTQGPVSDLCPVTSAQAPRHLQSSAWEMDGPRENRGSFHKSLDQIFETLETKNPSCMEELFSDVDSPYYDLDTVLTGMMGGARPGPCEGLEGLAPATPGPSSSCKSDLGELDHVVEILVET
Molecule B12 returned an Experimental % binding under setting [2] of 57%.
